Source: IntAct's records for PubMed 23393263

B1: Protein E6 (Human papillomavirus type 16), P03126 (parent)
chain: MHQKRTAMFQDPQERPRKLPQLCTELQTTIHDIILECVYCKQQLLRREVYDFAFRDLCIVYRDGNPYAVCDKCLKFYSKISEYRHYCYSLYGTTLEQQYNKPLCDLLIRCINCQKPLCPEEKQRHLDKKQRFHNIRGRWTGRCMSCCRSSRTRRETQL
B2: Protein E6 (Bovine papillomavirus type 1), P06931 (parent)
chain: MDLKPFARTNPFSGLDCLWCREPLTEVDAFRCMVKDFHVVIREGCRYGACTICLENCLATERRLWQGVPVTGEEAELLHGKTLDRLCIRCCYCGGKLTKNEKHRHVLFNEPFCKTRANIIRGRCYDCCRHGSRSKYP

Key:
[1] = variants of: B1; conditions: with ube3a_human UBE3A
[2] = variants of: B1; conditions: with ube3a_human UBE3A; remark: listed apart in the source
[3] = variants of: B2; conditions: with paxi_human PXN
[4] = variants of: B2; conditions: with paxi_human PXN; remark: listed apart in the source

Variant | effect of a mutation on the interaction [1] | effect of a mutation on the interaction [2] | effect of a mutation on the interaction [3] | effect of a mutation on the interaction [4]
R109A | disrupting interaction strength | decreasing interaction strength | – | –
R62A | decreasing interaction strength | – | – | –
L57A | disrupting interaction strength | – | – | –
L57E | – | disrupting interaction strength | – | –
R17A | decreasing interaction strength | – | – | –
R138A | disrupting interaction strength | decreasing interaction strength | – | –
S78R | decreasing interaction strength | – | – | –
R116G | – | – | decreasing interaction strength | disrupting interaction strength
R116D | – | – | decreasing interaction strength | disrupting interaction strength
L58S | – | – | decreasing interaction strength | disrupting interaction strength
F37S | – | – | decreasing interaction strength | disrupting interaction strength
R89A | – | – | decreasing interaction strength | disrupting interaction strength
R89L | – | – | decreasing interaction strength | disrupting interaction strength
R121G | – | – | decreasing interaction strength | disrupting interaction strength
